This note sets out measurements from publication PMC6033355, “A bi-specific inhibitor targeting IL-17A and MMP-9 reduces invasion and motility in MDA-MB-231 cells” (Oncotarget, 2018).

One may read the Kd as the equilibrium constant for the complex coming apart. A low value points to a tighter complex.

The target in this test is T1, HD_(N-TIMP2,V3) bi-specific heterodimer (N-TIMP2 fused by a linker to V3, the engineered soluble …).
T1 construct: flexible linker; Order on the chain: N-TIMP2, linker, V3, human IgG1 Fc, 6xHis; Vector pFUSE-hIgG1e3-Fc1; Glycosylated; also called bi-specific fusion protein; source: HEK293F, transiently transfected, secreted, purified (Ni-NTA, gel filtration); not shown: Fc (human IgG1), C-terminal, kept
Put plainly: BLI; Octet Red; HD_(N-TIMP2,V3) or V3 loaded on Protein A sensors (10 ug/ml, 300 s); IL-17A or MMP-9CAT in solution at 50, 100, 200 nM; 300 s association, 1800-2500 s dissociation; 30 C; PBS, 1% BSA, 0.05% Tween; 1:1 binding model. The note with it: both partners purified. Background: In BLI a coated tip is dipped into the sample, and binding shifts an interference pattern.

B1: MMP-9CAT (soluble MMP-9 catalytic domain) (enzyme)
chain: FQTFEGDLKWHHHNITYWIQNYSEDLPRAVIDDAFARAFALWSAVTPLTFTRVYSRDADIVIQFGVAEHGDGYPFDGKDGLLAHAFPPGPGIQGDAHFDDDELWSLGKGQGYSLFLVAAHEFGHALGLDHSSVPEALMYPMYRFTEGPPLHKDDVNGIRHLY
modifications: Active enzyme, catalytic and structural Zn2+ and Ca2+ (assay buffer has 5 mM CaCl2). Limits are not printed in the text given. Taken by convention from the MMP-9 catalytic domain lacking the …
B1 showed a dissociation constant Kd of 1.65 ± 0.02 nM.
